Reference: the supplement of paper PMC10567573

B1: GFOD1 (parent)
chain: EEAEELAKEMSVPFYTSRIDEVLL
B2: STK38L (parent)
chain: NWKETLVFPPEVPISEKAKDLILR

Variants of: B1
Assay: protein stability index of a GFP-peptide fusion (GPS, HEK-293T) (PSI 1-6); higher = more stable
Conditions: c terminus: a fixed tail appended
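Also: lentivirally expressed fusions sorted by FACS into six bins by GFP to DsRed ratio, PSI derived from sequencing read proportions per bin multiplied by bin number.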

Protein stability index of substitutions, site by site:
V12: F 2.91, A 3.2, L 3.67, M 4.31, D 3.47, E 4.38, P 4.14, T 4.2, G 4.26, C 3.71, S 4.46, N 4.56, H 3.03, Q 3.91, Y 4.22, K 3.99, R 3.89, I 3.6
L24: N 4.6, Y 3.2, E 4.97, H 3.18, P 4.98, Q 4.78, S 4.41, V 4, I 3.75, M 3.73, C 4.04, G 4.11, F 3.55, D 5.2, T 4.22
P13: D 3.96, S 3.47, T 4.03, K 3.19, L 2.57, W 1.97, Q 3.47, V 2.74, N 3.78, R 4.11, C 3.27, G 4.02, H 2.54, I 2.03, E 3.97, M 3.32
D20: F 2, V 2.08, Q 3.79, G 2.42, W 2.59, E 3.91, N 3.29, A 2.74, T 2.66, I 1.9, C 2.46, H 2.73, P 3.55, K 2.78, Y 2.47, L 2.07, R 3.04, M 2.33
L23: H 3.9, F 2.98, S 4.54, I 3.66, W 3.02, N 4.21, Y 3.42, V 4.26, E 5.13, R 4.31, D 5.11, G 3.66, P 4.57, Q 4.72, T 3.87
A7: W 2.39, V 4.01, Y 3.07, T 3.79
V22: Q 4.65, C 3.7, M 4.29, L 3.1, W 3.62, P 4.24, T 4.51, N 4.21, A 4.53, E 5.12, R 4.26, D 5.23, H 4.68, S 3.86, I 3.23, F 3.73, Y 3.78
E21: S 3.83, F 1.42, M 1.78, P 3.92, C 1.97, W 1.83, K 2.56, Q 3.39, Y 2.66, T 3.65, L 1.61, V 2.45, R 2.8, D 4.08, N 3.69, A 2.66
R18: S 4.56, L 3.05, Q 4.69, P 4.15, H 4.57, V 2.64, E 4.65, K 4.26, D 4.79, F 3.17, M 3.43, N 4.4, I 2.92, Y 4.04, A 4.26, W 3.71, T 4.27, C 4.17
K8: E 4.17, P 3.59, L 2.46, Y 2.86, M 3.29, F 2.25, T 3.89, C 2.9, S 2.89, R 4.04, I 2.76, A 3.66, D 3.94, V 2.85, N 3.39, H 3.66, G 4.1
I19: H 4.85, T 4.11, Y 4.64, N 5, G 4.48, E 5.1, R 4.57, A 4.54, L 3.69, Q 4.93, D 5.04, S 4.75, F 3.01, K 4.41, C 4, M 3.2, V 4.31, P 4.48
F14: H 4.2, D 4.9, M 3.83, W 3.66, L 3.79, K 4.2, I 4.05, E 4.4, S 4.37, P 4.85, A 4.46, R 4.22, V 3.86, G 3.4, T 4.51, N 4.68, Q 5
M10: S 4.12, Y 3.63, G 4.22, V 3.84, L 2.62, T 4.03, K 4.03, C 4.53, P 4.5, D 4.7, W 4.5, R 3.81, I 3.57, A 4.41, Q 4.26, H 4.53, F 3.62
Y15: N 4.83, C 3.97, R 4.2, F 3.61, Q 4.42, A 4.47, S 5.01, T 4.91, E 4.99, M 4.14, H 4.77, G 4.97, I 3.62, K 4.41, P 5, L 3.67, W 3.1
S11: L 4.46, G 2.97, F 2.72, N 2.23, I 3.29, P 3.87, K 3.17, D 4.5, Y 2.86, R 3.02, T 4.12, H 4.04, A 3.51, C 3.36, W 2.76, M 3.67, E 4.74, Q 4.04
E9: H 3.2, P 3.01, S 2.92, V 3.1, I 2.15, Q 3.17, L 2.16, F 3.12, M 3.03, D 3.93, N 3.71, W 2.62, C 2.55, K 2.66, Y 2.94, R 2.7
S17: V 3.12, N 4.04, Q 3.27, T 3.29, Y 2.94, H 3.71, A 3.09, K 3.87, C 2.52, P 4.43, R 3.9, W 3, D 4.98, F 1.79, E 4.27, I 2.38, L 2.09
T16: Q 4.17, P 3.65, F 2.33, W 2.32, M 3.03, Y 2.27, I 3.08, D 4.33, S 3.27, N 4.17, K 3.7, L 2.75, C 3.81, G 3.78, V 3.45, R 3.27, A 4, H 3.93

Variants of: B2
Assay: as above
Conditions: c terminus: a fixed tail appended

Protein stability index: each site, then its substitutions
W2: A 4.45, H 3.46, Y 3.25, I 3.32, C 3.67, D 3.68, Q 4.21, T 4.64, F 3.37, P 4.09, L 3.96, S 3.01, N 4.14, E 4.15, V 3.59, R 3.39, M 3.54
N1: K 2.9, Q 3.09, A 2.16, S 4.02, V 2.41, I 2.18, W 1.78, H 3.04, R 2.74, P 3, D 3.57, M 1.98, Y 2.44, C 3.1
K3: G 3.17, H 3.68, D 3.69, N 3.46, E 3.41, A 3.37, L 2.02, I 2.42, C 2.59, M 2.42, F 1.64
